From US20180311300A1 (published 2018)
“And” between values parts separate entries of the source, which are not always exact repeats. Identical values can stand only once. Numbered stars: 1 amine (or outer) side, 2 acyl side, 3 side chain; on linkers, the order of the positions; unused ones are H or OH. Bridge positions count the residues as written; N and C are the ends. Square brackets hold non-standard residues; d marks the D form. Ends that are not written are not given here. Intermediate H = 1,1',1''-(1,7,13-trioxa-4,10,16-triazacyclooctadecane-4,10,16-triyl)tris(2-chloroethan-1-one), O=C(C[*:1])N1CCOCCN(C(=O)C[*:2])CCOCCN(C(=O)C[*:3])CCOCC1; Intermediate D = 1,1',1''-(1,4,7-triazonane-1,4,7-triyl)tris(prop-2-en-1-one), O=C(CC[*:1])N1CCN(C(=O)CC[*:2])CCN(C(=O)CC[*:3])CC1; Intermediate K = 1,3,5-tris(vinylsulfonyl)benzene, O=S(=O)(CC[*:1])c1cc(S(=O)(=O)CC[*:2])cc(S(=O)(=O)CC[*:3])c1; Intermediate C = 1,1',1''-(1,4,7-triazonane-1,4,7-triyl)tris(2-chloroethan-1-one); Intermediate I = 1,4,7-tris(vinylsulfonyl)-1,4,7-triazonane; 1Nal = N[C@@H](Cc1cccc2ccccc12)C(=O)O; Tle = CC(C)(C)[C@H](N)C(=O)O

B1: I-61 (peptide)
peptide: AC[dA]NE[1Nal][dA]CEDFYD[Tle]C
modifications: linker 2-8-15 via Intermediate K
notes: also called peptide 4 cyclised with Intermediate K
B2: I-58 (peptide)
peptide: AC[dA]NE[1Nal][dA]CEDFYD[Tle]C
modifications: linker 2-8-15 via Intermediate H
notes: also called peptide 4 cyclised with Intermediate H
B3: I-55 (peptide)
peptide: AC[dA]NE[1Nal][dA]CEDFYD[Tle]C
modifications: linker 2-8-15 via Intermediate D
notes: also called peptide 4 cyclised with Intermediate D
B4: I-54 (peptide)
peptide: AC[dA]NE[1Nal][dA]CEDFYD[Tle]C
modifications: linker 2-8-15 via Intermediate C
notes: also called peptide 4 cyclised with Intermediate C
B5: I-59 (peptide)
peptide: AC[dA]NE[1Nal][dA]CEDFYD[Tle]C
modifications: linker 2-8-15 via Intermediate I
notes: also called peptide 4 cyclised with Intermediate I

Columns and labels:
MT1-MMP hemopexin domain [1] = molecular target: T1, MT1-MMP hemopexin domain (UniProt P50281 319-511); assay: fluorescence polarization (anisotropy) assay on MT1-MMP hemopexin domain; grade A = Ki <50 nM
T1 construct: domain: hemopexin domain; also called hemopexin of MT1-MMP; membrane type 1 metalloprotease
Procedure: (§1) Direct Binding Fluorescence Polarization or Anisotropy Assays are performed by titrating a constant concentration of fluorescent tracer (here, the fluoresceinated bicyclic peptide to be studied) with its binding partner (here, the MT1-MMP hemopexin domain). As the concentration of binding partner increases during the titration, the polarization signal changes in proportion to the fraction of bound and unbound material. This allows determination of […] (Kd) quantitatively. Assay data can be fit using standard ligand binding equations.
(§2) The titrant (binding partner) concentration is varied from 0.1 nM up to typically 5 μM. The range is chosen such that the maximum change in fluorescent polarization can be observed. Buffers employed are phosphate buffered saline in the presence of 0.01% Tween. Experiments were run in black 384 well low-bind/low volume plates (Corning 3820), and the fluorescent polarization signal was measured using a BMG Pherastar FS plate reader. Fluorescent tracers referred to in the text are bicyclic peptides that have been fluoresceinated using 5,6-carboxyfluorescein. Fluoresceination may be performed on the N-terminal amino group of the peptide, which is separated from the bicycle core sequence by a sarcosine spacer (usually Sar5). […]

MT1-MMP hemopexin domain [2] = molecular target: T1, MT1-MMP hemopexin domain; assay: fluorescence polarization (anisotropy) assay on MT1-MMP hemopexin domain; grade B = Ki >50 nM and <=100 nM
Procedure: as §1, §2

MT1-MMP hemopexin domain [3] = molecular target: T1, MT1-MMP hemopexin domain; assay: fluorescence polarization (anisotropy) assay on MT1-MMP hemopexin domain; grade D = Ki >1,000 nM
Procedure: as §1, §2

| Binder | Ki (MT1-MMP hemopexin domain [1]) | Ki (MT1-MMP hemopexin domain [2]) | further results |
| --- | --- | --- | --- |
| B1 | < 50 nM | – | – |
| B2 | – | > 50 nM and ≤ 100 nM | – |
| B3 | – | > 50 nM and ≤ 100 nM | – |
| B4 | < 50 nM | – | – |
| B5 | – | – | Ki (MT1-MMP hemopexin domain [3]): > 1000 nM |
